In patent US20140086916A1 (Merck Sharp & Dohme, published 2014):

T1: FcγRIIb (Pichia pastoris produced) (UniProt P31994 43-217, limits assumed)
T1 construct: also called FcgRIIB; CD32B
T1 sequence (looked up): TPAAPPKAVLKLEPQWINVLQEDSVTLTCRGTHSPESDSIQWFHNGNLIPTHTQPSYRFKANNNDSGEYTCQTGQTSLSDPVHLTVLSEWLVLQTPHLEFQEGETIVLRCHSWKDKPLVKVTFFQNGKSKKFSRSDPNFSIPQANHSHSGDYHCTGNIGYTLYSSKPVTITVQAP


Columns and labels:
[1] = molecular target: T1, FcγRIIb (Pichia pastoris produced); test: ELISA-type plate assay, FcγR coated, antibody dimerized with AP-conjugated goat anti-human IgG F(ab')2, RFU readout
Protocol: (§1) Fcγ receptor binding assays were carried out as described (Shields, et al. (2001) J. Biol. Chem. 276:6591-6604) with minor modifications. High protein binding 96-well plates (Corning Costar) were coated with 100 μL per well of Fcγ receptor solutions in PBS at the following concentrations: 1 μg/mL for both FcγRI (R&D Systems) and FcγRIIa (Pichia pastoris produced), 2 μg/mL for FcγRIIb (P. pastoris produced), 0.8 μg/mL for FcγRIIIa-F158, and 0.4 μg/mL for FcγRIIIa-V158 (both P. pastoris produced). All Pichia pastoris produced receptors were expressed and purified as described (Li, et al. (2006) Nature Biotechnology 24:210-215). Monomeric antibody samples added to the FcγRI plate were serially diluted in assay diluent (1×PBS, 1% BSA, and 0.05% Tween20) and 100 μL, per well was added to the plate. Antibody samples prepared for the remaining receptors require a one hour dimerization step with half molar ratio of goat anti-human IgG F(ab′)2 F(ab′)2 that is conjugated with alkaline phosphatase for detection. These dimerized F(ab′)2/antibody complexes were also serially diluted and 100 μL per well were added to the remaining receptor plates and all plates were incubated for one hour at room temperature. FcγRI bound sample antibody was detected using the same goat anti-human IgG F(ab′)2 alkaline phosphatase conjugated F(ab′)2. Sample antibody binding was quantified by measuring excitation at 340 nm and emission at 465 nm after 18 hour incubation with SuperPhos, 4-MUP Fluorescence AP Substrate Detection System (Virolabs).

[2] = molecular target: T2, FcγRIIIa-F158 (Pichia pastoris produced) (UniProt P08637 17-208, limits assumed); test: as above
T2 construct: also called FcγRIIIA LF; FcgRIIIA LF
T2 sequence (P08637 17-208 limits assumed): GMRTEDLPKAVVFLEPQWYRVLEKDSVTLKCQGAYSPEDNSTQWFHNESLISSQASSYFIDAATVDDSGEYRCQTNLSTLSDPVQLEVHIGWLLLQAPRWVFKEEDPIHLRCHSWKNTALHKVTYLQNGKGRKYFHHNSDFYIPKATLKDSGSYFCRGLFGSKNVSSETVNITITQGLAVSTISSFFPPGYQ
Protocol: as §1

[3] = molecular target: T2, FcγRIIIa-F158 (Pichia pastoris produced); test: summary of the FcγR ELISAs; Table 8 summary: range of fold decrease over the ELISA experiments
Protocol: as §1, with “These dimerized F(ab′)2/antibody complexes were also serially diluted and 100 μL per well were added to the remaining receptor plates and all plates were incubated for one hour at room temperature.” left out

[4] = molecular target: T3, FcγRIIIa-V158 (Pichia pastoris produced) (UniProt P08637 17-208, limits assumed); test: as above
T3 construct: also called FcγRIIIA LV; FcgRIIIA LV
T3 sequence (P08637 17-208 F176V limits assumed): as the sequence (P08637 17-208 limits assumed) above, with F160V counted along it
Protocol: as §1, with “These dimerized F(ab′)2/antibody complexes were also serially diluted and 100 μL per well were added to the remaining receptor plates and all plates were incubated for one hour at room temperature.” left out

[5] = molecular target: T3, FcγRIIIa-V158 (Pichia pastoris produced); test: ELISA on plate-coated receptor; antibody dimerized with anti-human IgG F(ab')2-AP; ELISA IC50, YGLY23258 (dimer), Table 3 experiment
Protocol: as §1, with “These dimerized F(ab′)2/antibody complexes were also serially diluted and 100 μL per well were added to the remaining receptor plates and all plates were incubated for one hour at room temperature.” left out

| EC50 (read off the curve) [1] [µg/mL] | EC50 (read off the curve) [2] [µg/mL] | decreased affinity fold vs wildtype parent antibody produced in GS 5.0 [3] [fold] | decreased affinity fold vs wildtype parent antibody produced in GS 5.0 [4] [fold] | IC50 [5] [µg/mL] | Binder |
| --- | --- | --- | --- | --- | --- |
| ~0.4 | ~0.02 |  |  |  | 1F11 wildtype (parent) humanized anti-PCSK9 monoclonal IgG1 antibody (antibody, Produced in glycoengineered Pichia pastoris GFI5.0 (strain YGLY21351); also called 1F11 IgG1 GS5.0; YGLY21351) heavy: not shown light: DIQMTQSPSSLSASVGDRVTITCKASQNVGTNVVWYQQKPGKAPKALIHSASYRYSGVPSRFSGSGSGTDFTLTISSLQPEDFATYYCQQYKTYPYTFGQGTKVEIKRTVAAPSVFIFPPSDEQLKSGTASVVCLLNNFYPREAKVQWKVDNALQSGNSQESVTEQDSKDSTYSLSSTLTLSKADYEKHKVYACEVTHQGLSSPVTKSFNRGEC |
|  |  | 8 to 60 | 2 to 6 | 0.09 | 1F11 IgG1 F243A/V264A double mutein anti-PCSK9 antibody (antibody, sialylated N-glycans; also called 1F11 DM; YGLY23258) heavy: not shown light: DIQMTQSPSSLSASVGDRVTITCKASQNVGTNVVWYQQKPGKAPKALIHSASYRYSGVPSRFSGSGSGTDFTLTISSLQPEDFATYYCQQYKTYPYTFGQGTKVEIKRTVAAPSVFIFPPSDEQLKSGTASVVCLLNNFYPREAKVQWKVDNALQSGNSQESVTEQDSKDSTYSLSSTLTLSKADYEKHKVYACEVTHQGLSSPVTKSFNRGEC |
